Earlier results in paper PMC3773255.

Target: E-cadherin EC1-2 (UniProt P12830)

In the case of E-cadherin EC1-2 (from UniProt P12830), the Kd is listed as 97 µM.
